According to patent US10487121B2, “D-peptide inhibitors of HIV entry and methods of use” (priority 2016, dated 2019):
Values after ≈ are worked out from the molar mass of the structure shown. Numbered stars: 1 amine (or outer) side, 2 acyl side, 3 side chain; on linkers, the order of the positions; unused ones are H or OH. Bridge positions count the residues as written; N and C are the ends. Square brackets hold non-standard residues; d marks the D form. I, II: the chains in the order shown. X1 = CC(C)CCC[C@@H](C)[C@H]1CC[C@H]2[C@@H]3CC=C4C[C@@H](OC(=O)NCCOCCOCCOCCOCCC(=O)NCCOCCOCCOCCOCCOCCOCCOCCOCCOCCOCCOCCOCCOCCOCCOCCOCCOCCOCCOCCOCCOCCOCCOCCOCCOCCOCCOCCOCCC(=O)NC(CCC(=O)[*:1])(CCC(=O)[*:2])CCC(=O)[*:3])CC[C@]4(C)[C@H]3CC[C@]12C; PEG4 = NCCOCCOCCOCCOCCC(=O)O

Assays:
[1] = Solubility in standard aqueous buffers
[2] = Rodent pharmacokinetics of PIE12-trimer and conjugates (Table 3 protocol); format: in vivo, Sprague Dawley rats; conditions: rats
Protocol: At each timepoint, plasma was obtained using lithium heparin.
Samples were spiked with an internal standard then precipitated with two volumes of 98% acetonitrile/2% Formic acid. Supernatants were analyzed by LC/MS/MS using an Agilent HPLC system (Waters X-Bridge BEH C18 column) paired to an AB Sciex API 3000 triple-quad mass spectrometer using MRM methods. Lipid conjugates required lower source temperatures (300° C. vs 500° C.) for improved reproducibility.

[3] = Rat pharmacokinetics of cholesterol conjugates, Calvert study (Table 4 protocol); conditions: for bioavailability: male
Protocol: For PIE12 monomer conjugates, in-life studies were performed by Invitek (Hayward, Calif.). Trimeric conjugate in-life studies were performed at Navigen (Salt Lake City, Utah). […] At each timepoint, plasma was obtained using lithium heparin. […] Plasma samples were stored at −80° C. and shipped prior to bioanalysis.
The column temperature was maintained at 70° C.
Fifty microliter aliquots of plasma for each time point was precipitated with 2.5 volumes of ice-cold acetonitrile containing 2% trifluoroacetic acid (v/v) and 370 nM CPT12 as internal standard. […] The column temperature was maintained at 70° C.
CPT31 in Rat Plasma-Calvert Study
Fifty microliter aliquots of plasma for each time point was precipitated with 5 volumes of ice-cold acetonitrile containing 1% formic acid (v/v). No internal standard was used. […] The column temperature was maintained at 40° C.
All of the PK data presented in Table 3 was generated using the same animal protocols and similar bioanalytical methods. Different animal protocols and improved bioanalytical methods were used to generate the data in Table 4 (all PK fitiing was performed using WinNonlin software).

[4] = test system: JRFL (R5) luciferase reporter pseudovirions on HOS-CD4-CCR5; assay: Pseudovirion entry assay, JRFL; format: cell-based, HIV-1
Protocol: Pseudovirion assays were performed as previously described (Welch et al., 2010, J. Virol. 84:11235-44; Welch et al., 2007, Proc. Natl. Acad. Sci. 104:16827-16833, each of which is incorporated herein by reference in its entirety). Briefly, a six-point dilution series of each inhibitor was generated in quadruplicate on HOS-CD4-CXCR4 (for HXB2) or HOS-CD4-CCR5 (for JRFL) monolayers in 96 well plates, after which HXB2 (X4) or JRFL (R5) luciferase reporter pseudovirions were added. After 2 days, cells were lysed using GloLysis buffer (Promega) and BrightGlo luciferase substrate (Promega) was added. Luminescence was read on a PolarStar Optima (BMG) plate reader and normalized to uninhibited controls. Inhibition curves were plotted and fit to a standard IC50 equation for normalized data [(1−c/(IC50+c)], weighting each point by its standard error using KaleidaGraph (Synergy Software). Reported IC50 values are the average of at least two independent quadruplicate assays.

[5] = Non-human primate pharmacokinetics; format: in vivo, cynomolgus monkeys
Protocol: Non-Human Primate Pharmacokinetics
In-life was performed by Calvert Laboratories (Scott Township, Pa.). […] Upon IV dosing, 1 ml blood samples were collected at 0.083, 0.167, 0.25, 0.5, 1, 2, 4, 8, 16 and 24 h post-dose into chilled tubes containing K2EDTA, mixed by inversion, and centrifuged (3000 rpm, 4° C., 15 min) to isolate plasma. Plasma was stored at −80° C. until bioanalysis.
Following a 13-day washout period, study animals were administered a single subcutaneous dose of CPT31 (10 mg/ml in 50 mM HEPES, pH 7.4) into the loose skin of the back between the shoulder blades at a dose of 3 mg/kg. Plasma samples were collected at pre-dose, 0.25, 0.5, 1, 2, 4, 8, 16, 24 and 48 hours post-dose. Collected blood samples were treated as described above. The pre-dose sample confirmed drug levels were below the lower limit of quantification (5.00 nM).
CPT31 in Monkey Plasma-Calvert Study
The internal standard, CPT31-IS was synthesized with an additional glycine on each PIE12-2 monomer (three in total), increasing the molecular mass by 171.1 Da. Plasma samples (200 μl) were spiked with CPT31-IS to a concentration of either 60 or 150 nM, then precipitated in 2% NH4OH in acetonitrile (500 μl). Following centrifugation, the supernatant was applied to a strong anion exchange solid-phase extraction 96-well plate (SOLAμ SAX, 2 mg/ml 96-well plate). The anion exchange plate was first conditioned with 400 μl of 2% NH4OH in methanol, followed by 400 μl of 2% NH4OH in water. The precipitated supernatant (500 μl) was then loaded into each well, followed by washing with 500 μl of 2% NH4OH in water, then 500 μl of methanol. Sample was eluted using two 50 μl aliquots of 2% formic acid in methanol.
LC-MS analysis was conducted using an Agilent Infinity 1290 HPLC system paired to an Agilent 6450A Q-TOF mass spectrometer equipped with a Dual Jet Spray ESI source. […] Samples were analyzed against a standard curve of CPT31 from 5.00-2,000 nM.

[6] = humans; cited from earlier work
HSA = HSA (Homo sapiens, UniProt P02768); conditions: cited from earlier work
[7] = rat, in vivo, IV, 1.0 mg/kg, plasma, median
[8] = rat, in vivo, SC, 1.0 mg/kg, plasma, median
[9] = rats, SC, 1.0 mg/kg, plasma, median, updated protocols
[10] = rats, IV, 1.0 mg/kg, plasma, median, updated protocols

Sequence of HSA (P02768 25-609): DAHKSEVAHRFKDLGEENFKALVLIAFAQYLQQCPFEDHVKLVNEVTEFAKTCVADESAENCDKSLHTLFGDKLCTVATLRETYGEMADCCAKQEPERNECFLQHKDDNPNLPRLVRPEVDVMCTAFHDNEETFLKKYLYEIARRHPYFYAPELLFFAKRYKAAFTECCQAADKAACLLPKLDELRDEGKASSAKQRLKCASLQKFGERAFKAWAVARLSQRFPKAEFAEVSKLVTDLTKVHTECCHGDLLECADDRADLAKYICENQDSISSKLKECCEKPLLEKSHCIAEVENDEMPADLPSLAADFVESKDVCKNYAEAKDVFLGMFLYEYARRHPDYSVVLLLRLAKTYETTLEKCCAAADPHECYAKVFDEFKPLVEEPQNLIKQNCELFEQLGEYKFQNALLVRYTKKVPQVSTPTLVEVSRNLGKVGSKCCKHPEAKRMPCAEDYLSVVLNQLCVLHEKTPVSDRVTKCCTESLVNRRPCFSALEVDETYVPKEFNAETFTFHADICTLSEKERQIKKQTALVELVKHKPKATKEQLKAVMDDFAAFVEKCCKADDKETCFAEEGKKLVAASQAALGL

CC(=O)N[C@H](Cc1c[nH]cn1)C(=O)N1CCC[C@@H]1C(=O)N[C@@H]1CSSC[C@H](C(=O)N[C@H](CCC(=O)O)C(=O)N[C@H](CC(C)C)C(=O)NCC(=O)N[C@H](CCCCNC(=O)CCOCCOCCOCCOCCNC(=O)CCOCC(COCCC(=O)NCCOCCOCCOCCOCCC(=O)NCCCC[C@@H](NC(=O)CNC(=O)[C@@H](CC(C)C)NC(=O)[C@@H](CCC(=O)O)NC(=O)[C@H]2CSSC[C@@H](NC(=O)[C@H]3CCCN3C(=O)[C@@H](Cc3c[nH]cn3)NC(C)=O)C(=O)N[C@H](CC(=O)O)C(=O)N[C@H](Cc3ccc(O)cc3)C(=O)N3CCC[C@@H]3C(=O)N[C@H](CCC(=O)O)C(=O)N[C@H](Cc3c[nH]c4ccccc34)C(=O)N[C@H](CCC(N)=O)C(=O)N[C@H](Cc3c[nH]c4ccccc34)C(=O)N[C@H](CC(C)C)C(=O)N2)C(N)=O)(COCCC(=O)NCCOCCOCCOCCOCCC(=O)NCCCC[C@@H](NC(=O)CNC(=O)[C@@H](CC(C)C)NC(=O)[C@@H](CCC(=O)O)NC(=O)[C@H]2CSSC[C@@H](NC(=O)[C@H]3CCCN3C(=O)[C@@H](Cc3c[nH]cn3)NC(C)=O)C(=O)N[C@H](CC(=O)O)C(=O)N[C@H](Cc3ccc(O)cc3)C(=O)N3CCC[C@@H]3C(=O)N[C@H](CCC(=O)O)C(=O)N[C@H](Cc3c[nH]c4ccccc34)C(=O)N[C@H](CCC(N)=O)C(=O)N[C@H](Cc3c[nH]c4ccccc34)C(=O)N[C@H](CC(C)C)C(=O)N2)C(N)=O)NC(=O)CCOCCOCCOCCOCCOCCOCCOCCOCCOCCOCCOCCOCCOCCOCCOCCOCCOCCOCCOCCOCCOCCOCCOCCOCCNC(=O)CCN2C(=O)CC(S[C@H]3CC[C@@]4(C)C(=CC[C@H]5[C@@H]6CC[C@H]([C@H](C)CCCC(C)C)[C@@]6(C)CC[C@@H]54)C3)C2=O)C(N)=O)NC(=O)[C@@H](CC(C)C)NC(=O)[C@@H](Cc2c[nH]c3ccccc23)NC(=O)[C@@H](CCC(N)=O)NC(=O)[C@@H](Cc2c[nH]c3ccccc23)NC(=O)[C@@H](CCC(=O)O)NC(=O)[C@H]2CCCN2C(=O)[C@@H](Cc2ccc(O)cc2)NC(=O)[C@@H](CC(=O)O)NC1=O (some centres unmarked) [CPT24]
solubility [1]: ~40 mg/mL (≈ 4.53 mM) | bioavailability ([2]; Sprague Dawley, rat, SC, 1.0 mg/kg, plasma, median): 73% | AUC(0-inf) [2, 7]: 2.39 µM·h | C0 [2, 7]: 1110 nM | clearance ([2]; rat, in vivo, IV, 1.0 mg/kg, plasma, median, read-out: Cl (obs) (converted)): 0.783 mL/min/kg | half-life ([2]; rat, in vivo, IV, 1.0 mg/kg, plasma, median, read-out: T1/2 (converted)): 1.77 h | Vd ([2]; rat, in vivo, IV, 1.0 mg/kg, plasma, median, read-out: Vz (obs)): 0.13 L/kg | half-life ([2]; rat, in vivo, IV, read-out: IV half-life (converted)): 1.8 h | AUC(0-inf) [2, 8]: 1.75 µM·h | Cmax [2, 8]: 304 nM | Tmax [2, 8]: 4 h | half-life ([2]; rat, in vivo, SC, 1.0 mg/kg, plasma, median, read-out: T1/2 (converted)): 2.71 h | half-life ([2]; rat, in vivo, SC, read-out: SC half-life (converted)): 2.7 h | increase of IV half-life vs PIE12-trimer ([2]; IV): > 3 fold | reduction of clearance vs PIE12-trimer ([2]; IV): ~18 fold | extension of SC (apparent) half-life vs PIE12-trimer ([2]; SC, terminal phase elimination): > 3 fold | bioavailability ([3]; rat, in vivo, sc, 1 mg/kg): 51.4% | AUC(0-inf) ([3]; rat, in vivo, iv, 1 mg/kg): 4.66 µM·h | C0 ([3]; rat, in vivo, iv, 1 mg/kg): 4530 nM | Vd ([3]; rat, in vivo, iv, 1 mg/kg): 0.057 L/kg | half-life ([3]; rat, in vivo, iv, 1 mg/kg): 1.62 h | half-life ([3]; rat, in vivo, sc): 3.8 h | AUC(0-inf) ([3]; rat, in vivo, sc, 1 mg/kg): 2.39 µM·h | Cmax ([3]; rat, in vivo, sc, 1 mg/kg): 395 nM | Tmax ([3]; rat, in vivo, sc, 1 mg/kg): 2 h | half-life ([3]; rat, in vivo, sc, 1 mg/kg): 3.88 h | F [3, 9]: 51%

CPT24-5kD: includes 5 kDa of linear polydisperse PEG between PIE12-trimer and thiocholesterol
antiviral potency, in words [4]: comparable to CPT24 | prolonged half-life compared to CPT24 ([3]; rats, IV): 3.5 fold | AUC(0-inf) [3, 10]: 4.578 µM·h | C0 [3, 10]: 1100 nM | Cl (obs) [3, 10]: 0.243 mL/min/kg | T1/2 [3, 10]: 5.62 h | Vz (obs) [3, 10]: 0.118 L/kg | prolonged half-life compared to CPT24 ([3]; rats, SC): 1.8 fold | AUC(0-inf) [3, 9]: 1.557 µM·h | Cmax [3, 9]: 89 nM | T1/2 [3, 9]: 7.21 h

I: Ac-[dH][dP][dC][dD][dY][dP][dE][dW][dQ][dW][dL][dC][dE][dL]G[PEG4][dK]-NH2 / II: Ac-[dH][dP][dC][dD][dY][dP][dE][dW][dQ][dW][dL][dC][dE][dL]G[PEG4][dK]-NH2 / III: Ac-[dH][dP][dC][dD][dY][dP][dE][dW][dQ][dW][dL][dC][dE][dL]G[PEG4][dK]-NH2 (disulfide I:3-I:12, II:3-II:12, III:3-III:12; linker I:17-II:17-III:17 via X1) [CPT31]
half-life ([5]; cynomolgus monkey, in vivo, non-human primates, SC, read-out: subcutaneous half-life (converted)): 18 h | bioavailability ([5]; cynomolgus monkey, male cynomolgus monkeys, SC, 3.0 mg/kg, plasma, median): 80.4% | adverse events ([5]; cynomolgus monkeys, IV 1 mg/kg then SC 3 mg/kg): no adverse events were observed | solubility [1]: ~40 mg/mL | bioavailability ([3]; rat, in vivo, sc, 1 mg/kg): 55% | half-life ([3]; rat, in vivo, iv, 1 mg/kg): 3.25 h | half-life ([3]; rat, in vivo, sc): 5.4 h

enfuvirtide
volume of distribution, in words [6]: reduced volume of distribution | HSA binding, in words (HSA): highly HSA bound
